T1: recombinant human A33 antigen (human, UniProt Q99795 22-233, limits assumed)
T1 construct: also called human antigen A33; immobilized recombinant human A33
T1 sequence (looked up): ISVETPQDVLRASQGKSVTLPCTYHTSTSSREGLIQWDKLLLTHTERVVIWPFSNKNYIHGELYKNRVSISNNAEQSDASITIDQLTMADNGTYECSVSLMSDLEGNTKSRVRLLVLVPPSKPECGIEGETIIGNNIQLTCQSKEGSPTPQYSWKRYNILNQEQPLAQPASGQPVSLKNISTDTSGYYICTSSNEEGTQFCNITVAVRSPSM


Columns and labels:
[1] = biological target: T1, recombinant human A33 antigen; test: SPR (Biacore), recombinant human A33 immobilized on CM5 chip; Kd calculated from koff/kon
Method: (§1) The binding strength was determined by surface plasmon resonance in accordance with Rader, et al., Proc. Natl. Acad. Sci USA 95(15): 8910–8915 (1998), incorporated by reference. Briefly, the determination of association ($kon$) and dissociation ($koff$) rate constants for binding of rabbit and humanized Fab to recombinant human A33 antigen was performed on a Biacore instrument (Biacore AB, Uppsala, Sweden). A CM5 sensor chip (Biacore AB) was activated for immobilization with Nhydroxysuccinimide and N-ethyl-N'-(3-dimethylaminopropyl)carbodiimide according to standard methods. Recombinant human A33 antigen was coupled at a low density to the surface by injection of 30 µl to 40 µl of a 1 ng/µl sample in 10 mM sodium acetate (pH 3.5). Approximately 500 resonance units were immobilized. Subsequently, the sensor chip was deactivated with 1 M ethanolamine hydrochloride (pH 8.5). Binding of Fab to immobilized A33 antigen was studied by injection of Fab at 5 different concentrations ranging from 75 nM to 200 nM. PBS was used as the running buffer. The sensor chip was regenerated with 20 mM HCl and remained active for at least 50 measurements. The $kon$ and $koff$ values were calculated using Biacore AB evaluation software. The equilibrium dissociation constant K_d was calculated from $koff/kon$.
Association ($kon$) and dissociation ($koff$) rate constant were determined using surface plasmon resonance. Human antigen A33 was immobilized on the sensor chip. The dissociation constant (K_d) was calculated from […].

[2] = biological target: T1, recombinant human A33 antigen; test: SPR (Biacore), recombinant human A33 immobilized on CM5 chip, Fab injected at 75-200 nM
Method: as §1
Figure 6: FIG. 6 depicts representative Biacore sensorgrams obtained for the binding of rabbit Fab 1 to immobilized human A33 antigen. For association, Fab were injected at 5 different concentrations (200 nM, 150 nM, 125 nM, 100 nM, 75 nM, top to bottom) between t=125 and t=370 seconds, using a flow rate of 5 µl/minute. For dissociation, the flow rate was increased to 50 µl/minute resonance units (RU).

Row | Binder | Kd [1] | koff [2] | kon [2]
1 | humanized Fab B (human VLB and human VHB) (Fab, V domains shown) VH: EVQVMESGGGLVKPGGSLRLSCAASGIGFSHYGISWVRQAPGKGLEWVSYIYPNYGSVDYASSVNGRFTISLDNAQNSLYLQMNSLRAEDTAVYFCARDRGYYSGSRGTRLDLWGQGTLVTVSS VL: ELQMTQSPSSLSASVGDRVTITCLASEFLFNGVSWYQQKPGKVPKFLIYGASNLESGVPSRFSGSGSGTDFTLTISSLQPEDVATYYCLGGYSGSSGLTFGGGTKVEIK | 1.7 nM | 0.00061 s⁻¹ | 352000 M⁻¹ s⁻¹
2 | humanized Fab C (human VLC and human VHC) (Fab, V domains shown) VH: EVQVMESGGGLVKPGGSLRLSCAASGIDFSHYGISWVRQAPGKGLEWVSYIYPNYGSVDYASSVNGRFTISLDNAQNSLYLQMNSLRAEDTAVYYCARDRGYYSGSRGTRLDLWGQGTLVTVSS VL: ELQMTQSPSSLSASVGDRVTITCLASEFLFNGVSWYQQKPGKAPKFLIYGASNLESGVPSRFSGSGSGTDFTLTISSLQPEDVATYYCLGGYSGSSGLTFGGGTKVEIK | 18.1 nM | 0.00197 s⁻¹ | 109000 M⁻¹ s⁻¹
3 | humanized Fab F (human VLF and human VHF) (Fab, V domains shown) VH: EVQVMESGGGLVKPGGSLRLSCAASGIGFSHYGISWVRQAPGKGLEWVSYIYPNYGSVDYASSVNGRFTISLDNAQNSLYLQMNSLRAEDTAVYYCARDRGYYSGSRGTRLDLWGQGTLVTVSS VL: ELQMTQSPSSLSASVGDRVTITCLASEFLFNGVSWYQQKPGKAPKFLIYGASNLESGVPSRFSGSGSGTDFTLTISSLQPEDVATYYCLGGYSGSSGLTFGGGTKVEIK | 3.5 nM | 0.00068 s⁻¹ | 192000 M⁻¹ s⁻¹
4 | humanized Fab E (human VLE and human VHE) (Fab, V domains shown) VH: EVQVMESGGGLVKPGGSLRLSCAASGFTFSHYGISWVRQAPGKGLEWVSYIYPNYGSVDYASSVNGRFTISFDNAQNSVYLQMNSLRAEDTAVYYCARDRGYYSGSRGTRLDLWGQGTLVTVSS VL: ELQMTQSPSSLSASVGDRVTITCLASEFLFNGVSWYQQKPGKAPKLLIYGASNLESGVPSRFSGSGSGTDYTLTISSLQPEDVATYYCLGGYSGSSGLTFGGGTKVEIK | 7.7 nM | 0.0005 s⁻¹ | 65000 M⁻¹ s⁻¹
5 | humanized Fab A (human VLA and human VHA) (Fab, V domains shown) VH: EVQVMESGGGLVKPGGSLRLSCAASGIDFSHYGISWVRQAPGKGLEWVSYIYPNYGSVDYASSVNGRFTISFDNAQNSLYLQMNSLRAEDTAVYYCARDRGYYSGSRGTRLDLWGQGTLVTVSS VL: ELQMTQSPSSLSASVGDRVTITCLASEFLFNGVSWYQQKPGKVPKFLIYGASNLESGVPSRFSGSGSGTDYTLTISSLQPEDVATYYCLGGYSGSSGLTFGGGTKVEIK | 5.6 nM | 0.00059 s⁻¹ | 105000 M⁻¹ s⁻¹
6 | humanized Fab D (human VLD and human VHD) (Fab, V domains shown) VH: EVQVMESGGGLVKPGGSLRLSCAASGIDFSHYGISWVRQAPGKGLEWVSYIYPNYGSVDYASSVNGRFTISLDNAQNSLYLQMNSLRAEDTAVYFCARDRGYYSGSRGTRLDLWGQGTLVTVSS VL: ELQMTQSPSSLSASVGDRVTITCLASEFLFNGVSWYQQKPGKVPKFLIYGASNLESGVPSRFSGSGSGTDYTLTISSLQPEDVATYYCLGGYSGSSGLTFGGGTKVEIK | 29.2 nM | 0.0019 s⁻¹ | 65000 M⁻¹ s⁻¹
7 | rabbit Fab 1 (rabbit VH1, VL1; chimeric rabbit/human Fab) (Fab, V domains shown, Soluble Fab from E. coli; also called rabbit 1; rabbit clone 1) VH: QQQVMESGGGLVTLGGSLTLTCKASGIDFSNNGISWVRQAPGKGLEWILYIYPDYGSTDYASWVNGRFTISLDNAQNTVFLQMTSLTAADTATYFCARDRGAYAGSRGTRLDLWGQGTLVTVSS VL: EFDMTQTPPSLSASVGETVRIRCLASEFLFNGVSWYQQKPGKPPKFLISGASNLESGVPPRFSGSGSGTDYTLTIGGVQAEDVATYYCLGGYSGSSGLTFGAGTNVEIK | 0.39 nM | 0.00012 s⁻¹ | 307000 M⁻¹ s⁻¹

Reference: patent publication US6346249 (LUDWIG INSTITUTE FOR CANCER RESEARCH, dated 2002)
